Assay results: publication PMC12044695

Columns and labels:
Test in all cases: ELISA; enzyme-linked lectin assay (ELLA): extracted glycoproteins immobilised at 4 μg/mL on high-binding 96-well plates, blocked with 0.5% PVA, probed 2 h at room temperature with WGAHRP or AuNP–WGAHRP (1 μg/mL WGAHRP) in PBS with 1 mM CaCl2 and 1 mM MgCl2, ABTS read at 405 nm; then the same plate probed with WGA antibodies and AlexaFluor 633 secondary antibodies (FLISA)
[1] = biological target: WGA-binding glycoproteins purified from C2C12 cells in differentiation conditions
[2] = biological target: WGA-binding glycoproteins purified from C2C12 cells in growth condition
[3] = biological target: WGA-binding glycoproteins purified from NSC-34 cells in growth condition
[4] = biological target: WGA-binding glycoproteins purified from NSC-34 cells in differentiation conditions
[5] = biological target: WGA-binding glycoproteins purified from NE-4C cells in growth condition

Measured: fluorescence intensity (FLISA) against WGAHRP (% lower than WGAHRP)

gold nanoparticle-conjugated WGAHRP (AuNP-MSA-WGAHRP conjugate) (from UniProt P00433 31-338)
50: all assays above
